Here are results for ten molecules from patent US20060253917A1 (published 2006).

The labels stand for the following.
B7: OsMADS15 aa 100-235 (other)
chain: AKIETIQKCHKHLMGEDHESLNLKELQQLEQQLESSLKHIISRKSHLMLESISELQKKERSLQEENKALQKELVERQKNVRGQQQVGQWDQTQVQAQAQAQPQAQTSSSSSSMLRDQQALLPPQNICYPPVMMGER
notes: bait, Gal4 DBD fusion; also called PN20842
B8: OsHOS59 aa 1-100 (other)
chain: LDLFMTHYVLLLCSFKEQLQQHVRVHAMEAVMACWELEQTLQSLTGASPREGSGATMSDDEDNQVDSESNMFDGNDGSDGMGFGPLMLTEGERSLVERVR
notes: bait, Gal4 DBD fusion; also called PN20559; O. sativa Homeobox Protein HOS59, Fragment
B10: OsMADS3 aa 70-170 (other)
chain: KKANSDTSNSGTVAEVNAQHYQQESSKLRQQISSLQNANSRTIVGDSINTMSLRDLKQVENRLEKGIAKIRARKNELLYAEVEYMQKREVELQNDNMYLRS
notes: bait, Gal4 DBD fusion; also called PN20700

One experiment addresses T1, OsE2F2 (367) aa 1-368 (Oryza sativa).
T1 construct: bait, Gal4 DBD fusion; also called PN21003; E2F2 Homolog, Alt
Kind of experiment: Y2H; input trait library. In outline: (§1)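 Protein-protein interactions were detected with an automated, high-throughput yeast two-hybrid assay provided by Myriad Genetics Inc. (Salt Lake City, Utah). A bait clone encoding a defined amino-acid fragment of a rice protein was screened against a rice prey library, either the input trait or the output trait library. Prey clones were retrieved, and their encoding sequences were compared by BLAST against databases to identify the interacting proteins.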

The experiment “OsHOS59 aa 1-100” concerns the target B8. Kind of experiment: Y2H; input trait library. In outline:
as §1

A further experiment addresses T2, OsHOS59 aa 1-206 (Oryza sativa, UniProt Q94LW4 113-311).
T2 construct: bait, Gal4 DBD fusion; also called PN20559
T2 sequence: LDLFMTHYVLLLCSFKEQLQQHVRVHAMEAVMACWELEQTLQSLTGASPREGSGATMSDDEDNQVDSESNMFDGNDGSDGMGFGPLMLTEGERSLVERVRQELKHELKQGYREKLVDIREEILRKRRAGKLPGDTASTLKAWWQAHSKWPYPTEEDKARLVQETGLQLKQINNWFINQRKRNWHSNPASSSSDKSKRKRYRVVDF
Kind of experiment: Y2H; input trait library. The procedure, abridged: as §1

Another experiment addresses T3, Os003181-3684 aa 58-140 (Oryza sativa).
T3 construct: bait, Gal4 DBD fusion; also called PN21036; Hypothetical Protein 003181-3684
T3 chain: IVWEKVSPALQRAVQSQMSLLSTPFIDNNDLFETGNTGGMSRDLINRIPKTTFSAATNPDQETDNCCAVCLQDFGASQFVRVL
Kind of experiment: Y2H; output trait library. In outline: as §1

The experiment “OsMADS3 aa 70-170” deals with B10. Kind of experiment: Y2H; input trait library. In outline:
as §1

The experiment “OsMADS15 aa 100-235” addresses B7. Nature of the experiment: Y2H; input trait library. The procedure, abridged:
as §1

In a further experiment the target is T4, OsMADS1 aa 95-254 (Oryza sativa, UniProt A2XDY1 95-254).
T4 construct: prey, AD fusion; also called PN19788
T4 sequence: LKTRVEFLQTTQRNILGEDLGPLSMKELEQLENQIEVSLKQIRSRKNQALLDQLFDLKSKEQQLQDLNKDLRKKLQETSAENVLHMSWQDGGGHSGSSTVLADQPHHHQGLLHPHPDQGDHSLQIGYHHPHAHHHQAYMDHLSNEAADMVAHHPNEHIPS
Nature of the experiment: Y2H; input trait library. In outline:
as §1

In a further experiment the target is T5, OsMADS1 aa 74-172 (Oryza sativa, UniProt A2XDY1 74-172).
T5 construct: prey, AD fusion; also called PN19788
T5 sequence: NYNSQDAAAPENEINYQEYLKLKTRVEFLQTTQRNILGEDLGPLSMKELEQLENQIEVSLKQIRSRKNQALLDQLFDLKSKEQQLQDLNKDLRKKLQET
Nature of the experiment: Y2H; input trait library. The procedure, abridged:
as §1

The target in the next experiment is T6, OsMADS45 aa 120-249 (Oryza sativa, UniProt P0C5B0 120-249).
T6 construct: prey, AD fusion; also called PN20231
T6 sequence: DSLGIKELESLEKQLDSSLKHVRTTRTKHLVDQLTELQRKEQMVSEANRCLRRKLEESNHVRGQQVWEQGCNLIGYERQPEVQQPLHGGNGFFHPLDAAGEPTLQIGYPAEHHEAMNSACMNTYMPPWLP
Nature of the experiment: Y2H; output trait library. The procedure, abridged:
as §1

The target of a further experiment is T7, Os000221-3976 aa 123-238 (Oryza sativa, UniProt Q07078 342-457).
T7 construct: prey, AD fusion; also called PN23169
Kind of experiment: Y2H; input trait library. The procedure, abridged: as §1

Another experiment concerns the target T8, OsMADS17 aa 51-248 (Oryza sativa, UniProt Q7XUN2 51-248).
T8 construct: prey, AD fusion; also called PN20914
T8 sequence: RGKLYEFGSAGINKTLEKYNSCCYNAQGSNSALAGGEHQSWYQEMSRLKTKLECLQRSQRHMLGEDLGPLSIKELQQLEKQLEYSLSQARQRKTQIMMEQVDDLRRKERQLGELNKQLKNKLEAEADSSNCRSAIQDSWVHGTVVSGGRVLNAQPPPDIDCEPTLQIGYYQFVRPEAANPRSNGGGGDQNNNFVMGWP
Nature of the experiment: Y2H; output trait library. The procedure, abridged: as §1

A further experiment concerns the target T9, OsFDRMADS6 aa 74-246 (Oryza sativa, UniProt P0C5B1 74-246).
T9 construct: prey, AD fusion; also called PN19766
T9 sequence: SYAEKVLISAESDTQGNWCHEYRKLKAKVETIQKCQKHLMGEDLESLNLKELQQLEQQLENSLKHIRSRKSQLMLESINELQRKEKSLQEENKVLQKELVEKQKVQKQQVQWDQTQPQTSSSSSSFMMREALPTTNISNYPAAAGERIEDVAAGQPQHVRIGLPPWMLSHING
Nature of the experiment: Y2H; output trait library. In outline:
as §1

Another experiment has as its target T10, OsMADS8 aa 68-245 (Oryza sativa, UniProt Q9SAR1 68-245).
T10 construct: prey, AD fusion; also called PN20778
T10 sequence: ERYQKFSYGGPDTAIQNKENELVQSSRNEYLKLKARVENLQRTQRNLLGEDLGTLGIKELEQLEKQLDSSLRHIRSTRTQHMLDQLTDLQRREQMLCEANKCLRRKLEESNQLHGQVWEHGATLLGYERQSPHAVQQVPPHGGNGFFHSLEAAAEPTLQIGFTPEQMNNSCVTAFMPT
Kind of experiment: Y2H; output trait library. The procedure, abridged: as §1

Another experiment deals with T11, OsMADS45 aa 2-214 (Oryza sativa, UniProt P0C5B0 2-214).
T11 construct: prey, AD fusion; also called PN20231
T11 sequence: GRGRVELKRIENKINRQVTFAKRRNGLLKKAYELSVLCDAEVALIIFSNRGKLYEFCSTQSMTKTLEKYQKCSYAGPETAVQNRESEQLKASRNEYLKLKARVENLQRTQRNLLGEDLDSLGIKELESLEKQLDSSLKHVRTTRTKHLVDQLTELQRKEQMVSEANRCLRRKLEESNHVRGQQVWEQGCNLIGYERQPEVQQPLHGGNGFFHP
Nature of the experiment: Y2H; output trait library. The procedure, abridged:
as §1

For another experiment, the target named is T12, OsMADS8 aa 6-159 (Oryza sativa, UniProt Q9SAR1 6-159).
T12 construct: prey, AD fusion; also called PN20778
T12 sequence: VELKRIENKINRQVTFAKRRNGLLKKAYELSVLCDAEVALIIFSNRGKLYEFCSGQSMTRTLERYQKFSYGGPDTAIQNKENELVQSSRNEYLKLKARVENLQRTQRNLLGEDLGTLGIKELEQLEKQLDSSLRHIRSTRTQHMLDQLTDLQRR
Nature of the experiment: Y2H; output trait library. The procedure, abridged:
as §1

The next experiment addresses T13, OsMADS45 aa 57-249 (Oryza sativa, UniProt P0C5B0 57-249).
T13 construct: prey, AD fusion; also called PN20231
T13 sequence: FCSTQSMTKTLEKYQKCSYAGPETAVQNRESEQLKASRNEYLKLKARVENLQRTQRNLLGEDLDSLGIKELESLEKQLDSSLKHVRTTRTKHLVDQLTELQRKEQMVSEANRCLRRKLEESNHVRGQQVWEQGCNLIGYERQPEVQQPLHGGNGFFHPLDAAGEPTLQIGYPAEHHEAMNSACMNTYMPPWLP
Kind of experiment: Y2H; output trait library. In outline: as §1

Another experiment deals with T14, OsMADS45 aa 48-249 (Oryza sativa, UniProt P0C5B0 48-249).
T14 construct: prey, AD fusion; also called PN20231
T14 sequence: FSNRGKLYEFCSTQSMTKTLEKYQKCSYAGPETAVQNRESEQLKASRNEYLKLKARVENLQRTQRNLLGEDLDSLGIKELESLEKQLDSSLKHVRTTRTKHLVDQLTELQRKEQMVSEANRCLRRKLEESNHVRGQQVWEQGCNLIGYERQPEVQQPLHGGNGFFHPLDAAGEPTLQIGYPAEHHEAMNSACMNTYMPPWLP
Kind of experiment: Y2H; input trait library. In outline: as §1

A further experiment addresses T15, OsMADS8 aa 61-248 (Oryza sativa, UniProt Q9SAR1 61-248).
T15 construct: prey, AD fusion; also called PN20778
T15 sequence: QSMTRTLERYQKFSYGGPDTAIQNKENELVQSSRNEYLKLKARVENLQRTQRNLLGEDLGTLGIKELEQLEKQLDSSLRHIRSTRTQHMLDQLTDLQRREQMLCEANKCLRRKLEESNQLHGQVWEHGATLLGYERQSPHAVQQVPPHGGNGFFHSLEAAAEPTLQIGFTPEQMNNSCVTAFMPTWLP
Nature of the experiment: Y2H; input trait library. The procedure, abridged:
as §1

T1 sequence (chain, as listed by the source limits assumed): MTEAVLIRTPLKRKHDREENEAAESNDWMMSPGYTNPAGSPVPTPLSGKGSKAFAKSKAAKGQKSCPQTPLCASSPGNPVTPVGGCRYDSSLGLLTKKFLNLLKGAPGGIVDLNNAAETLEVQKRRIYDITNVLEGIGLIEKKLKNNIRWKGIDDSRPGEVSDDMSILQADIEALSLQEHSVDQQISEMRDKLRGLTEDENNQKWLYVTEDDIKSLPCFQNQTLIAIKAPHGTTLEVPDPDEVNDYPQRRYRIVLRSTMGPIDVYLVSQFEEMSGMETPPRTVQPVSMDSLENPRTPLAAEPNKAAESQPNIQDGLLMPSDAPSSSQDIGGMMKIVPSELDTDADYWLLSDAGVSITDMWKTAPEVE
T7 sequence (Q07078 342-457): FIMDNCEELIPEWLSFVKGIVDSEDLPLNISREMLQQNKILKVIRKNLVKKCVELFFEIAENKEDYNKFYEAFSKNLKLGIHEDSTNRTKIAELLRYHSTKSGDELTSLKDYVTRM

B1: Os018989-4003 aa 69-294 (other)
chain: GGGGNAAEREEGGANRNGKKEKTGAQRITGWGLREFSKIVSKKVEAKGRTTYNEVADEIFAELKSITQNGLEFDEKNIRRRVYDAFNVLIAIRVIAKDKKEIKWMGLTNYRYEKIQKLEEVHKELITRIKNKKKLLQEIEKQFDDLQNITLRNQASQRPAESVNGILLPFLLIKTSRKARVEIEISEDSKFARFDFNGAPFTMHDDVSILEAIRRNKGRAGLSIHP
notes: prey, AD fusion; also called PN21044
Take B1: the binding result with OsE2F2 (367) aa 1-368 is “binds”.

B2: OsAAD27557 aa 7-142 (other)
chain: DFQPRTFSIKLWPPSESTRLMLVERMTKNLSTESIFSRKYGLLGKEEAHDNAKRIEEVCFASADEHFKEEPDGDGSSAVQLYAKETSKLMLEVLKRGPRTTVEPEVPVADTPLEPADSVFDISGGKRAFIEADEAK
notes: prey, AD fusion; also called PN22896
Regarding B2, in the experiment with OsHOS59 aa 1-100, the binding result is recorded as “binds”.

B3: OsPN23251 aa 112-291 (other)
chain: DMNLITDQDFTELVQKVPDDCLFTIVSDSCHSGGLLDKTKEQIGHSTKQNQAQQIKREERSDSGTGGFRSFLKETLKETVRDAFESRGVHIPHQSSRRNDDEDEEPHMGSSSHGGDRIKNRSLPLSTLIEMLKEKTGKDDIDVGSIRMTLFSLFGDDASPKIKKFMKVMLTKLQEGQHGG
notes: prey, AD fusion; also called Novel Protein PN23251
As to B3, the binding result in the experiment with OsHOS59 aa 1-206 is listed as “binds”.

B4: OsAAD27557 aa 1-149 (other)
chain: MDSTKQDFQPRTFSIKLWPPSESTRLMLVERMTKNLSTESIFSRKYGLLGKEEAHDNAKRIEEVCFASADEHFKEEPDGDGSSAVQLYAKETSKLMLEVLKRGPRTTVEPEVPVADTPLEPADSVFDISGGKRAFIEADEAKELLSPLI
notes: as for B2
For B4, the binding result with Os003181-3684 aa 58-140 is “binds”.

B5: OsPN31165 aa 58-252 (other)
chain: YAREMERLSAKESLLLAFRDAGGFESLVSGKTTGMQKIDVNERIVGLERLNPTPRPTTSPFLEGRWNFEWFGDSSPGALAARLLFERSPTTVAHFTGLDVLIKDGYSKISSNVKFLNTVQSKFLLTTQLSVEGPIRMKEEYVEGLIEIPRIREETLPDQLKGFFGQTAGALQQLPAPIRDAVSEGIKLPLNGMFQ
notes: prey, AD fusion; also called Novel protein PN31165
Regarding B5, in the experiment with OsMADS3 aa 70-170, the binding result is reported as “binds”.

B6: OsPN29971 aa 1-108 (other)
chain: EKSDVQSTLEMELDRRSNDWSVKLAEFQSEEQRLRERVRELAEQNVSFQREVTLLESNRIDVSNKITSLELQNKQLNDELQKVKKEHDTLLKSSVELNDNLTKTAEGY
notes: prey, AD fusion; also called Novel protein PN29971, fragment, similar to A. thaliana centromere protein
With B6, in the experiment with OsMADS15 aa 100-235, the binding result is “binds”.
As for B7, the binding result with OsMADS1 aa 95-254, in the experiment with OsMADS1 aa 74-172 and with OsMADS45 aa 120-249 was “binds” throughout.
Consider B8, for which the binding result in the experiment with Os000221-3976 aa 123-238 is “binds”.

B9: OsMADS5 aa 50-160 (other)
chain: TRGRLFEFSTSSCMYKTLERYRSCNYNLNSCEASAALETELSNYQEYLKLKTRVEFLQTTQRNLLGEDLVPLSLKELEQLENQIEISLMNIRSSKNQQLLDQVFELKRKEQ
notes: bait, Gal4 DBD fusion; also called PN20770
In the case of B9, the binding result with OsMADS17 aa 51-248 and in the experiment with OsFDRMADS6 aa 74-246 was “binds” throughout.
Take B10: the binding result with OsMADS8 aa 68-245, with OsMADS45 aa 2-214, with OsMADS8 aa 6-159, with OsMADS45 aa 57-249, in the experiment with OsMADS45 aa 48-249 and in the experiment with OsMADS8 aa 61-248 was “binds” in each case.
